Measured values from paper PMC4631650 (Current biology : CB, 2015).
Where a chain is given by its changes, count along the chain named. In names and notes the source's numbering stands.

B1: RECQ1-WT (full-length His-tagged human RECQ1) (enzyme, UniProt P46063 1-649, looked up)
chain: MASVSALTEELDSITSELHAVEIQIQELTERQQELIQKKKVLTKKIKQCLEDSDAGASNEYDSSPAAWNKEDFPWSGKVKDILQNVFKLEKFRPLQLETINVTMAGKEVFLVMPTGGGKSLCYQLPALCSDGFTLVICPLISLMEDQLMVLKQLGISATMLNASSSKEHVKWVHAEMVNKNSELKLIYVTPEKIAKSKMFMSRLEKAYEARRFTRIAVDEVHCCSQWGHDFRPDYKALGILKRQFPNASLIGLTATATNHVLTDAQKILCIEKCFTFTASFNRPNLYYEVRQKPSNTEDFIEDIVKLINGRYKGQSGIIYCFSQKDSEQVTVSLQNLGIHAGAYHANLEPEDKTTVHRKWSANEIQVVVATVAFGMGIDKPDVRFVIHHSMSKSMENYYQESGRAGRDDMKADCILYYGFGDIFRISSMVVMENVGQQKLYEMVSYCQNISKCRRVLMAQHFDEVWNSEACNKMCDNCCKDSAFERKNITEYCRDLIKILKQAEELNEKLTPLKLIDSWMGKGAAKLRVAGVVAPTLPREDLEKIIAHFLIQQYLKEDYSFTAYATISYLKIGPKANLLNNEAHAITMQVTKSTQNSFRAESSQTCHSEQGDKKMEEKNSGNFQKKAANMLQQSGSKNTGAKKRKIDDA
B2: RECQ1-F231A (full-length His-tagged human RECQ1 aromatic loop mutant) (enzyme, UniProt P46063 1-649, looked up)
chain: B1 chain with F231A
B3: RECQ1-W227A (full-length His-tagged human RECQ1 aromatic loop mutant) (enzyme, UniProt P46063 1-649, looked up)
chain: B1 chain with W227A

Molecular target: the molecule itself
Assay: SEC

Protein | binding result
B1 | binds
B2 | binds
B3 | binds
